Here are results for one molecule from US20220213176A1 (SHANGHAITECH UNIVERSITY, published 2022).

This assay has as its target SARS-CoV-2 spike receptor binding domain, wild-type (S-RBD) (SARS-CoV-2, UniProt P0DTC2 319-541). The experiment in a line: BLI (Octet RED96), biotin S-RBD on SA sensor, 1:1 fit.

B1: S-E6 trimer (T4F) (other)
heavy: QVTLRESGPGLVKPSETLSLTCAVSGGSLSSVNYYWSWIRQHPGKGLEWIGYIYYSGSTNYNPSLKSRVTMSLDTSKNQFSLKLSSVTAADTAVYYCATPGAIMGALHIWGQGTLVTVSSASTKGPSVFPLAPSSKSTSGGTAALGCLVKDYFPEPVTVSWNSGALTSGVHTFPAVLQSSGLYSLSSVVTVPSSSLGTQTYICNVNHKPSNTKVDKKVEPPKSGGGGSGGGGSGGGGSPGSGYIPEAPRDGQAYVRKDGEWVLLSTFLGHHHHHH
light: QAVLTQPSSASSTPGQRVIISCSGSSSNIGSNTVSWYQQVPGAAPKLLIYFDYRRPSGVPDRFSGTRSGTSASLGISGLQSEDEADYYCAAWDDSLSAWVFGRGTKLTVLGGLGGLVDYKGQPKAAPSVTLFPPSSEELQANKATLVCLISDFYPGAVTVAWKADSSPVKAGVETTTPSKQSNNKYAASSYLSLTPEQWKSHRSYSCQVTHEGSTVEKTVAPTECS
notes: also called trimer S-E6; trimeric S-E6
By Kd is commonly meant the equilibrium constant for the complex coming apart. A low value points to a tighter complex. B1 had an equilibrium dissociation constant (Kd) of 0.0101 nM.
